# Data reported in the RNAGym collection of RNA variant scans (doi:10.1073/pnas.2313332121).
# This sample holds only a part of the variants without activity.
# B1: TPR 5TU (parent)
# chain: GGAUCUUCUCGAUCUAACAAAAAAGACAAAUCUGCCACAAAGCUUGAGAGCAUCUUCGGAUGCAGAGGCGGCAGCCUUCGGUGGCGCGAUAGCGCCAACGUUCUCAACUAUGACACGCAAAACGCGUGCUCCGUUGAAUGGAGUUUAUCAUG
# Variants of: B1
# Assay: polymerase ribozyme fitness, log enrichment relative to wild type (log ratio); higher = more active; in vitro selection for triplet polymerase activity
# In short: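 Genotype fitness is the logarithm of its enrichment divided by wild-type enrichment, using inverse-variance-weighted averages of replicates. That logarithm is base 2. Enrichment was measured by Illumina sequencing of input and output libraries from one triplicate in vitro selection round, with frozen incubation at −7 °C, on PCR-built, transcribed mutant libraries of each subunit of a heterodimeric triplet polymerase ribozyme, retaining genotypes with ≥10 input reads and ≥1 read per output.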
row,Variant,polymerase ribozyme fitness (log ratio)
1,GGAUCUUCUCGAUCUAAAAAACUAGACAAAUCUGCCCCAAAGCUUGAGAGCAUCUUCGGAUGCAGAGGCGGUAGCCUUCGGUGGCGCAAUAGCGCCAACGUUCUCAACUAUGACACGCAAAACGUGUGCUCCGUUGAAUGGAGUUGAUCAUG [C18A A22C A23U A37C C72U G88A C125U U146G],≤ -4.2
2,GGAUCUUCUCGAUCUAUCAAAAAAGACAAAUCUGCCACAAAGCUUGAGAGCAUCUUCGGAUGCAGAGGCGGCAGCCUUCGGUGGCGCGAUAGCGCCAACGGUCUCAACUAUGACACGCAAAACGCGUGCUCCGUUGAAUGGAGUUUAUCAUG [A17U U101G],0.484
3,GGAUCUUCUCGAUCUAAAAAAAAAGACAAGUCUGCCAUAAAGCUUGACAGCAUCUUCGGAUGCAGAGGCGACAGCCUUCGGUGGCGCGUUAGCGCUCACGUUCUCAACUAUGACACGCAAAACGCGUGCUCCGUUGAAUGGAGUUUAUCAUG [C18A A30G C38U G48C G71A A89U C96U A97C],≤ -4.2
4,GGAUCUUCUCGAUCUAAAAUAAAAGACAAAUCUGCCACAAAGCUUGAGAGCAUCUUCGGAUGCAGAGGCGCCAGCCUUCGGUGGCGCGAUACCGCCAACGUUCUCAACUAUGACACGCAAAACGCGUGCUCCGUUGAAUGGAUGUUAUCAUG [C18A A20U G71C G92C G143U U144G],≤ -4.2
5,GGAUCUUCUCGAUCUAAAAAUAAAGACAAAUCUGCCACAAAGCUUGAGAGCGUUUUCGGAUGCAGAGGCGGCAGCCUUCGGUGGCGCGAUAACGCCAACGUUAUCAACUAUGACACGCAAAACGCGUGCUCCGUUGAAUGGAGUUUAUCAUG [C18A A21U A52G C54U G92A C103A],≤ -4.2
6,GGAUCUUCUCGAUCUAUCAAAAAAGACAAAUCUGCCACAAAGCUUGAGAGCAUCUUCGGAUGCAGAGGCGGCAGCCUUCGGUGGCGCGAUAGCGCCAACGAUCUCAACUAUGACACGCAAAACGCGUGCUCCGUUGAAGGGUGUUUAUCAUG [A17U U101A U139G A142U],-3.82
7,GGAUCUUCUCGAUCUAAGUAAACAGACAAAUCUGCCACAAAGCUUGAGAGCAUCUUCGGAUGCAGACGCGGCAGCCUUCGGUGGCGCGAUAGCGCCAACGUUCUCAACUAUGACACGCAAAACGCAUGCUCCGUUGAAUGGAUCUUAUCAUG [C18G A19U A23C G67C G126A G143U U144C],≤ -4.2
8,GGAUCUUCUCGAUCUAAAAAAAAAGACAAAUCUGCCACAAAGCUUGAGAGCAUCUUCGGAUGCAGAGGCGGCAGCCUUCGGUGGCGCGAUAGCGCCAACGUUCUCAACUAUGACACGCAAAACGCGUGCUCCGUUGAAUGCAGUUUAUCAUG [C18A G141C],-0.603
9,GGAUCUUCUCGAUCUAAAAAAAAAGACAAAUCAGCCACAAAGCUUGAGAGCAUCUACGGAUGCAGAGGCGGCAGCCUUCGGUGGCGCAAUAGCGCCAACGUUCUCAACUAUGAUACGCAAAACGCGUGCACCGUUGAAUGGAGUUUAUCAUG [C18A U33A U56A G88A C114U U130A],≤ -4.2
10,GGAUCUUCUCGAUCUAAAAAAAAAGACAAAUCUGCCACAAAGCUUGAGAGCAUCUACCGAUGCAGAGGCGGCAGCCUUCGGUGGCGCGAUAGCACCAACGUUCUCAACUAUGACACGCAAAACGCGUGCUCCGUUGAAUGGAGUUUAUCAUG [C18A U56A G58C G94A],-0.964
11,GGAUCUUCUCGAUCUAAAAAAAAAGACAAAUCUGGCACUAAGCUUGAGAGCAUCUUCGGAUGCAGAGGCGGCAGCCUUCGGUGUCGCGAUAGCGCCAACGUUCUCAACUAUGACACGCAAAACGCAUGCUCCGUUGAAUGGAGUUUAUCCUG [C18A C35G A39U G84U G126A A150C],≤ -4.2
12,GGAUCUUCUCGAUCUAUCAAAAAAGACAAAUCUGCCACAAAGCUUGAGAGCAUCUUCGGAUGCAGAGGCGGCAGCCUUCGGUGGCGCGAUAGCGCCAACGUUCUCAACUAUGACACGCAAAACGCGUGCUCCGUUGAAUGGAGUUCAUCAUG [A17U U146C],-0.884
13,GGAUCUUCUCGAUCUAAAAAAAAAGACAAAUCUGCCACAAAGCUUGAGAGCAUCUACGGAUGCAGAGGCGGCAGCCUUCGGUGGGGCGAUAGCGCAAACGUUCUCAACUAUGACACGCAAAACGCGUGCUCCGUUGAAUGGAGUUUAUCAUG [C18A U56A C85G C96A],-3.54
14,GGAUCUUCUCGAUCUAAAAAUAAAGACAUAUCUGCCACAAAGCUUGAGAGCAUCUACGGAUGCAGAGGCGGCAGCCUUCGGUGGCGCGAUAGCGACAACGUUCUCAACUAUGACACGCAAAACGCGUGCUCCGUUGGAUGGCGUUUAUCAUG [C18A A21U A29U U56A C95A A137G A142C],≤ -4.2
15,GGAUCUUCUCGAUCUAAACAAAAAGACAAAUCUGACACAAAGCUUGAGAGCAUCUUCGGAUGCAGAGGCGGCAGCCUUCGGUGGCGCGAUAGCGCCAACGUUCUCAACUAUGACACGCAAAACGCGUGCUCCGUUGAAUGGAGUUUAUCAUG [C18A A19C C35A],-2.88
16,GGAUCUUCUCGAUCUAUCAAAAAAGACAAAUCUGCCACAAAGCUUGAGAGCAUCUGCGGAUGCAGAGGCGGCAGCCUUCGGUGGCGCGAUAGCGCCAACGUUCUCAACUAUGACACGCAAAACGGGUGCUCCGUUGAAUGGAGUUUAUCAUG [A17U U56G C125G],-1.81
17,GGAUCUUCUCGAUCUAAAAUAAAAGACAAAUCUGCCACAAAGCUUGAGAGCAUCUUCGGAUGCAGAGGAGGCAGCCUUCGGUGGCGCUAUAGGGCCAAGGUUCUCAACUAAGACACGCAAAACACGUGCUCCGUUGAAUCGAGUUUAUCAUG [C18A A20U C69A G88U C93G C99G U111A G124A G140C],≤ -4.2
18,GGAUCUUCUCGAUCUAUCAAAAAAGACAAAUCUGCCACAAAGCUUGAGAGCAUCAUCGGAUGCAGAGGCGGCAGCCUUCGGUGGCGCGAUAGCGCCAACGUUCUCAACUAUGACACGCAAAACGCGUGCUCCGUUGAAUGGAGUUUAUCAUG [A17U U55A],-1.08
19,GGAUCUUCUCGAUCUAAAAAAAAAGACAAAUCUGCCACAAAGCUUGAGAGCGUCUUCGGAUGCAGAGGCGGCAGCCUUCGGUGGCGAGAUACCGACAACGUUCACAACUAUGACACGCAAAACGCGUGCUCCGUUGAAUGGAGUUUAUCAUG [C18A A52G C87A G92C C95A U104A],≤ -4.2
